# Experimental data reported in publication PMC2654718.
# How the values were obtained:
# MBP-VDR-LBDmt (human) [1] = experiment: ITC
# MBP-VDR-LBDmt (human) [2] = experiment: pull-down
Kd (MBP-VDR-LBDmt (human) [1]),dH (MBP-VDR-LBDmt (human) [1]),stoichiometry N (MBP-VDR-LBDmt (human) [1]),peptide concentration at which inhibition of SRC2-VDR binding was observed (MBP-VDR-LBDmt (human) [2]),Substance
0.285 µM,-9.2 kJ/mol,0.93,,"SRC2-3 peptide, Texas Red labeled"
0.174 µM,-28 kJ/mol,1.02,,"SRC2-3 peptide, unlabeled"
,,,> 50 µM,"SRC3-1 peptide, unlabeled"
